Measured values from article PMC7794846.
One block for each substance: values may come before it.

Columns and labels:
[1] = target: LHCGR I83S mutant (human) (UniProt P22888)
[2] = target: LHCGR R247T mutant (human) (UniProt P22888)
[3] = target: LHCGR N35D + V37A mutant (human) (UniProt P22888)
[4] = target: human luteinizing hormone (LH)/chorionic gonadotropin (hCG) receptor (LHCGR), wild type (human) (UniProt P22888)
[5] = target: LHCGR S149F mutant (human) (UniProt P22888)
[6] = target: LHCGR A57T mutant (human) (UniProt P22888)
[7] = target: LHCGR T48R mutant (human) (UniProt P22888)
[8] = target: LHCGR E270V mutant (human) (UniProt P22888)
[9] = target: LHCGR K225S + T226I mutant (human) (UniProt P22888)
[10] = target: LHCGR I83S mutant (human) (UniProt P22888); remark: listed apart in the source
[11] = target: LHCGR R247T mutant (human) (UniProt P22888); remark: listed apart in the source
[12] = target: LHCGR N35D + V37A mutant (human) (UniProt P22888); remark: listed apart in the source
[13] = target: human luteinizing hormone (LH)/chorionic gonadotropin (hCG) receptor (LHCGR), wild type (human) (UniProt P22888); remark: listed apart in the source
[14] = target: LHCGR S149F mutant (human) (UniProt P22888); remark: listed apart in the source
[15] = target: LHCGR A57T mutant (human) (UniProt P22888); remark: listed apart in the source
[16] = target: LHCGR T48R mutant (human) (UniProt P22888); remark: listed apart in the source
[17] = target: LHCGR E270V mutant (human) (UniProt P22888); remark: listed apart in the source
[18] = target: LHCGR K225S + T226I mutant (human) (UniProt P22888); remark: listed apart in the source

LH AUC of the pERK1/2 activation kinetics, BRET (REV biosensor) in transfected HEK293 cells, 100 pM LH (relative units) [1]: 8.03
LH AUC of the pERK1/2 activation kinetics, BRET (REV biosensor) in transfected HEK293 cells, 100 pM LH (relative units) [2]: 10.5
LH AUC of the pERK1/2 activation kinetics, BRET (REV biosensor) in transfected HEK293 cells, 100 pM LH (relative units) [3]: 5.48
LH AUC of the pERK1/2 activation kinetics, BRET (REV biosensor) in transfected HEK293 cells, 100 pM LH (relative units) [4]: 13.9
LH AUC of the pERK1/2 activation kinetics, BRET (REV biosensor) in transfected HEK293 cells, 100 pM LH (relative units) [5]: 10.4
LH AUC of the pERK1/2 activation kinetics, BRET (REV biosensor) in transfected HEK293 cells, 100 pM LH (relative units) [6]: 10.9
LH AUC of the pERK1/2 activation kinetics, BRET (REV biosensor) in transfected HEK293 cells, 100 pM LH (relative units) [7]: 12.3
LH AUC of the pERK1/2 activation kinetics, BRET (REV biosensor) in transfected HEK293 cells, 100 pM LH (relative units) [8]: 10.9
LH AUC of the pERK1/2 activation kinetics, BRET (REV biosensor) in transfected HEK293 cells, 100 pM LH (relative units) [9]: 11.4
LH EC50 (pM) of cAMP increase, BRET (CAMYEL biosensor) in transfected HEK293 cells, 1 pM–100 nM LH, 30 min [10]: 712 pM
LH EC50 (pM) of cAMP increase, BRET (CAMYEL biosensor) in transfected HEK293 cells, 1 pM–100 nM LH, 30 min [11]: 556 pM
LH EC50 (pM) of cAMP increase, BRET (CAMYEL biosensor) in transfected HEK293 cells, 1 pM–100 nM LH, 30 min [12]: 595 pM
LH EC50 (pM) of cAMP increase, BRET (CAMYEL biosensor) in transfected HEK293 cells, 1 pM–100 nM LH, 30 min [13]: 1110 pM
LH EC50 (pM) of cAMP increase, BRET (CAMYEL biosensor) in transfected HEK293 cells, 1 pM–100 nM LH, 30 min [14]: 756 pM
LH EC50 (pM) of cAMP increase, BRET (CAMYEL biosensor) in transfected HEK293 cells, 1 pM–100 nM LH, 30 min [15]: 703 pM
LH EC50 (pM) of cAMP increase, BRET (CAMYEL biosensor) in transfected HEK293 cells, 1 pM–100 nM LH, 30 min [16]: 1210 pM
LH EC50 (pM) of cAMP increase, BRET (CAMYEL biosensor) in transfected HEK293 cells, 1 pM–100 nM LH, 30 min [17]: 2810 pM
LH EC50 (pM) of cAMP increase, BRET (CAMYEL biosensor) in transfected HEK293 cells, 1 pM–100 nM LH, 30 min [18]: 698 pM
Substance: recombinant human luteinizing hormone (LH) (from UniProt P01215 25-116; P01229 21-141) (ligand)

hCG AUC of the pERK1/2 activation kinetics, BRET (REV biosensor) in transfected HEK293 cells, 100 pM hCG (relative units) [1]: 6.65
hCG AUC of the pERK1/2 activation kinetics, BRET (REV biosensor) in transfected HEK293 cells, 100 pM hCG (relative units) [2]: 15.4
hCG AUC of the pERK1/2 activation kinetics, BRET (REV biosensor) in transfected HEK293 cells, 100 pM hCG (relative units) [3]: 8.19
hCG AUC of the pERK1/2 activation kinetics, BRET (REV biosensor) in transfected HEK293 cells, 100 pM hCG (relative units) [4]: 7.98
hCG AUC of the pERK1/2 activation kinetics, BRET (REV biosensor) in transfected HEK293 cells, 100 pM hCG (relative units) [5]: 13.9
hCG AUC of the pERK1/2 activation kinetics, BRET (REV biosensor) in transfected HEK293 cells, 100 pM hCG (relative units) [6]: 20.5
hCG AUC of the pERK1/2 activation kinetics, BRET (REV biosensor) in transfected HEK293 cells, 100 pM hCG (relative units) [7]: 13.4
hCG AUC of the pERK1/2 activation kinetics, BRET (REV biosensor) in transfected HEK293 cells, 100 pM hCG (relative units) [8]: 7.18
hCG AUC of the pERK1/2 activation kinetics, BRET (REV biosensor) in transfected HEK293 cells, 100 pM hCG (relative units) [9]: 9.47
hCG EC50 (pM) of cAMP increase, BRET (CAMYEL biosensor) in transfected HEK293 cells, 1 pM–100 nM hCG, 30 min [10]: 127 pM
hCG EC50 (pM) of cAMP increase, BRET (CAMYEL biosensor) in transfected HEK293 cells, 1 pM–100 nM hCG, 30 min [11]: 386 pM
hCG EC50 (pM) of cAMP increase, BRET (CAMYEL biosensor) in transfected HEK293 cells, 1 pM–100 nM hCG, 30 min [12]: 94.5 pM
hCG EC50 (pM) of cAMP increase, BRET (CAMYEL biosensor) in transfected HEK293 cells, 1 pM–100 nM hCG, 30 min [13]: 143 pM
hCG EC50 (pM) of cAMP increase, BRET (CAMYEL biosensor) in transfected HEK293 cells, 1 pM–100 nM hCG, 30 min [14]: 111 pM
hCG EC50 (pM) of cAMP increase, BRET (CAMYEL biosensor) in transfected HEK293 cells, 1 pM–100 nM hCG, 30 min [15]: 153 pM
hCG EC50 (pM) of cAMP increase, BRET (CAMYEL biosensor) in transfected HEK293 cells, 1 pM–100 nM hCG, 30 min [16]: 130 pM
hCG EC50 (pM) of cAMP increase, BRET (CAMYEL biosensor) in transfected HEK293 cells, 1 pM–100 nM hCG, 30 min [17]: 248 pM
hCG EC50 (pM) of cAMP increase, BRET (CAMYEL biosensor) in transfected HEK293 cells, 1 pM–100 nM hCG, 30 min [18]: 194 pM
Substance: recombinant human chorionic gonadotropin (hCG) (from UniProt P01215 25-116; P0DN86 21-165) (ligand)
